Here are results for one molecule from US20260266838A1 (NORDIC BIOSCIENCE A S, published 2026).

This assay concerns the target T1, monoclonal antibody (mAb) specific for the N-terminus amino acid sequence …, HRP-labeled, employed in the … (horseradish peroxidase (HRP) label, site not stated).
T1 construct: Mouse IgG2b / kappa from a hybridoma; also called HRP-labeled mAb; selected mAb
The assay can be described thus: competitive ELISA: selection peptide against coated …-K-biotin for the HRP-labeled mAb; 10 independent runs. As to the method:
All incubation steps were performed in the dark with constant shaking at 300 rpm and followed by five times wash of the wells using washing buffer ([…], 50 mM NaCl, pH 7.2). A 10-point calibration curve was plotted using a 4-parameter logistic curve fit of the selection peptide dilutions. Data were analyzed using the SoftMax Pro version 7.1.0 software (Molecular Devices).
Antibody specificity was evaluated using synthetic peptides and calculated as percentage of signal inhibition of two-fold diluted selection and deselection peptides (Table 1). Unspecific binding was tested using a nonsense screening peptide (biotin-[…] (SEQ ID NO: 23)). IC50 (half-maximal inhibition concentration) was determined from 10 independent runs of the 10-point calibration curve. The technical lower limit of detection (LLOD) was calculated as the mean signal of 60 determinations of a blank sample (i.e., assay buffer) plus 3× standard deviation (SD). The upper limit of quantification (ULOQ) was determined from 10 independent runs of the calibration curve and determined as the highest concentration of selection peptide determined with a recovery percentage within 100±20% of the nominal concentration and a CV<20%. […] Two-fold dilutions of four human serum samples quantified in three independent runs were used to evaluate assay linearity, calculated as percentage of recovery of the undiluted sample. […]
(In general: An ELISA detects its analyte on a solid surface through an enzyme-linked reagent.)

Ends that are not written are not given here.

T1 sequence (VH, as listed by the source, chain 1 of 2): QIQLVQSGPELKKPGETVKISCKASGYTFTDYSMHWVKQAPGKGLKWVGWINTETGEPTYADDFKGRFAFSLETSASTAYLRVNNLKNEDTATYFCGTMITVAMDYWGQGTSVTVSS
T1 sequence (VL, as listed by the source, chain 2 of 2): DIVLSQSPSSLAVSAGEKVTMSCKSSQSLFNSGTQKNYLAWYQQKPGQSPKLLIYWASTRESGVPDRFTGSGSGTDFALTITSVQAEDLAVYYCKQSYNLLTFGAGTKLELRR

B1: Selection peptide VDTLPQKPRE (peptide)
peptide: VDTLPQKPRE
modifications: not fully specified
notes: Synthetic peptide (Genscript); the end 75 follows from the ten residues; also called calibrator peptide
As a reminder, the IC50 is the midpoint of a concentration-inhibition curve. On to B1, for which the IC50 was found to be 0.0369 µg/mL.
